Assay results published in paper PMC4031500.

Biological target: chB6 (Bu-1), chicken B-lymphocyte allotypic marker (chicken (endogenous in DT40))
Assay: non-reducing against reducing SDS-PAGE with Western blot; chB6 immunoprecipitated from DT40 lysate, SDS-PAGE without reducing agent, blot with anti-chB6 peptide antibody; compared with membrane fractions run with 2-mercaptoethanol

## chB6 (Bu-1), chicken B-lymphocyte allotypic marker (natural protein)
  stoichiometry N: 2
